Laboratory results from paper PMC2719692.

Biological target: T1, eEF1α (GST fusion) (rat) (UniProt P62630)
T1 sequence: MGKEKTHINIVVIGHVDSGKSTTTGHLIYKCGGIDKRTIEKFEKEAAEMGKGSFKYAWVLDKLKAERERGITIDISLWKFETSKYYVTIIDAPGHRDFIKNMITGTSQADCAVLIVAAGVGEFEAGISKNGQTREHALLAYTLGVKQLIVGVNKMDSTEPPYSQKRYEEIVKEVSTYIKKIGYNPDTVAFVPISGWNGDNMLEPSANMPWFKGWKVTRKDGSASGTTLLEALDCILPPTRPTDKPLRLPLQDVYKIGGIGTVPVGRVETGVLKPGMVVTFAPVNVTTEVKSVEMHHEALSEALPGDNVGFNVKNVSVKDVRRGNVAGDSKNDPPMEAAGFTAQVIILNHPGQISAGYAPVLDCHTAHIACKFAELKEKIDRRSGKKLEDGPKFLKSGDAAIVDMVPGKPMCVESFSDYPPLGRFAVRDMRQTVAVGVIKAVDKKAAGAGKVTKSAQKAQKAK
Experiment: EMSA
Conditions: EMSA: 40 mM NaCl, 5 mM MgCl2, 30 mM Tris-HCl pH 7.6, 2 mM DTT, protease inhibitors, 22 °C 15 min, then RNase T1 (described for CHO extract); 12 fmol RNA in …

GGAGUGACGAACAGUGCUGCUGCCCUCAGGUGUAAAUAAUUUCCGGACCAACUCAGAGUCUUGCCGUACACCUCCACCCAGUUUACUAAACCCCGUUUUCUACCGAGCAUGUG [MT-111 (MT-1 3′UTR nt 1-111)]
binding: binds
